These results are taken from the DeepSol protein solubility set.

The nature of the data set: soluble on expression in E. coli; label from the status in PepcDB or PDB records.
For “MRDVPNIGFISLGCPKNLVDSERILTELRSDGYNIIPSYENADLVIVNTCGFIDSAVQESLEAVGEALKENGKVIVTGCLGAKENQIREVHPKVLEITGPHSYEAVMQHVHKYVPRPERNMYTSLVPAQGVKLTPKHYAYLKISEGCDHRCTFCIIPSMRGDLDSRPIVQILDEAKRLADSGVKELLIVSQDTSAYALDQTKENQNKTVFWNGVPIKNNLISLCEQLATLGIWIRLHYVYPYPHVDNLIPLMAEGKILPYLDIPLQHASPKILKAMKRPGSIDRTLERIKQWREICPELTLRSTFIVGFPGETEEDFQMLLDFLTEAQLDRVGCFKFSPVDGAVATEMAEQVPEEVKEERFHRFMQVQQRISVARLQQKIGKTLAIIIDEIDEYGIIGRSMADAPEIDGVVYVDNISQQAVTVGQIILVTITNADEYDLWGTYLEHHHHHH”, the “soluble on expression in E. coli” value was “soluble”.
“QIKSQGCRISRTFLLICSRGRKQRMKDSENKGASSPDMEPSYGGGLFDMVKGGAGRLFSNLKDNLKDTLKDTSSRVIQSVTSYTKGDLDFTYVTSRIIVMSFPLDNVDIGFRNQVDDIRSFLDSRHLDHYTVYNLSPKSYRTAKFHSRVSECSWPIRQAPSLHNLFAVCRNMYNWLLQNPKNVCVVHCLDGRAASSILVGAMFIFCNLYSTPGPAIRLLYAKRPGIGLSPSHRRYLGYMCDLLADKPYRPHFKPLTIKSITVSPIPFFNKQRNGCRPYCDVLIGETKIYSTCTDFERMKEYRVQDGKIFIPLNITVQGDVVVSMYHLRSTIGSRLQAKVTNTQIFQLQFHTGFIPLDTTVLKFTKPELDACDVPEKYPQLFQVTLDVELQPHDKVIDLTPPWEHYCTKDVNPSILFSSHQEHQDTLALGGQAPIDIPPDNPRHYGQSGFFASLCWQDQKSEKSFCEEDHAALVNQESEQSDDELLTLSSPHGNANGDKPHGVKKPSKKQQEPAAPPPPEDVDLLGLEGSAMSNSFSPPAAPPTNSELLSDLFGGGGAAGPTQAGQSGVEDVFHPSGPASTQSTPRRSATSTSASPTLRVGEGATFDPFGAPSKPSGQDLLGSFLNTSSASSDPFLQPTRSPSPTVHASSTPAVNIQPDVSGGWDWHAKPGGFGMGSKSAATSPTGSSHGTPTHQSKPQTLDPFADLGTLGSSSFASKPTTPTGLGGGFPPLSSPQKASPQPMGGGWQQGGAYNWQQPQPKPQPSMPHSSPQNRPNYNVSFSAMPGGQNERGKGSSNLEGKQKAADFEDLLSGQGFNAHKDKKGPRTIAEMRKEEMAKEMDPEKLKILEWIEGKERNIRALLSTMHTVLWAGETKWKPVGMADLVTPEQVKKVYRKAVLVVHPDKATGQPYEQYAKMIFMELNDAWSEFENQGQKPLY”: the “soluble on expression in E. coli” value is reported as “soluble”.
Turning to “MTDRGIVFNIQHFSIHDGPGIRTTVFLKGCPLRCPWCANPESQQKAPEQMLTSDGLNTKIVGEEKTVDEVIEEVLKDLDFYEESGGGMTLSGGEIFAQFDFALALLKAAKAAGLHTAIETTAFAKHEQFVTLVDYVDFIYTDLKHYNQLRHQKVTGVRNDLIIKNIHYAFQAGKEIVLRIPVIPQFNDSLDDAKAFSELFNQLEIDQVQLLPFHQFGENKYKLLGREYEMAEVKAYHPEDLADYQAVFLNHNIHCYF”, the “soluble on expression in E. coli” value is recorded as “not soluble”.
In the case of “GMKPIKEIADQLELKDDILYPYGHYIAKIDHRFLKSLENHEDGKLILVTAVTPTPAGEGKTTTSIGLSMSLNRIGKKSIVTLREPSLGPTLGLKGGATGGGRSRVLPSDEINLHFTGDMHAVASAHNLLAAVLDSHIKHGNELKIDITRVFWKRTMDMNDRALRSIVIGLGGSANGFPREDSFIITAASEVMAILALSENMKDLKERLGKIIVALDADRKIVRISDLGIQGAMAVLLKDAINPNLVQTTEGTPALIHCGPFANIAHGTNSIIATKMAMKLSEYTVTEAGFGADLGAEKFIDFVSRVGGFYPNAAVLVATVRALKYHGGANLKNIHEENLEALKEGFKNLRVHVENLRKFNLPVVVALNRFSTDTEKEIAYVVKECEKLGVRVAVSEVFKKGSEGGVELAKAVAEAAKDVEPAYLYEMNDPVEKKIEILAKEIYRAGRVEFSDTAKNALKFIKKHGFDELPVIVAKTPKSISHDPSLRGAPEGYTFVVSDLFVSAGAGFVVALSGDINLMPGLPKKPNALNMDVDDSGNIVGVS”, the “soluble on expression in E. coli” value was “soluble”.
On to “MAHHHHHHMDPLAGLTTGSRNVIDDFFRWSRLSLDKFKRDLTVEASAFQAGNLWREQYTKAEVAQMLNGQLALMLGVVDTQMEGTTAASAELMRAVLREADRQRVTLDIDVKSVLNNAGGVNAMGEHGRQLMSGPTGRLAPLTVEEASGEAARQLAEANAEVKRLQAKLQQVTDAYTQVMRGRSSDTENLLSMQDAMNDKERLAAELARRCQGQDPSLAATVQELRAEVAEAKRELASRLHQSTQYQQVKHLLAQRNEQLKMMRERLAAYDPSFARYGDDINAEDD”, for which the “soluble on expression in E. coli” value was “soluble”.
Under “MSIEVPISIPKTLIIIPAYNEEEAIADTLTRLLELKQHFTALSICVINDGSQDKTAQIVKNFPVHLINLPYNLGIGSAVQTGYKYAYENGYDIAIQFDADGQHNPDDLYKIIQPIAEGQCDMVLGSRFTEKTAYKGSISRRIGIFYFTALLKVLTKQTFMDPTSGYRAINREVITIFAHNYPKDYPEPEVLIHLKKKKLRINEISVNMQERQGGQSSITPLKSAYYMIKVSLAILMQKIVKGLEHHHHHH” stands “not soluble”; under “MSLSENPGATAQILSYNHVLSQLNREKTDVTEAKSLLNTAETSLSSMSTSMNRVNALVLQAINGTSDKDNMSQSAEEIKGLLDVLISVANSEDDGRYVFSGSSTSVKPFTTDKTTGEIIYNGTTENKKFRVTDTLEVEVFHDGSAMTDVFNNIQKIVDAMKSGDKDALSALQETNSKNIEIITNSMTNIGGQKNGVTAYDNVLSSKIVDFSERKSNVEEVNMPEAVSNLNKTSIAYQAALQSSVMVQKLSILNYMEGHHHHHH”, “soluble”; under “MAGDPMNEQSQAKSPDTLRAMVAGTLANFQHPTLKHNLTTLKALHHVAWMDDTLHVELVMPFVWNSAFEVLKEQCSADLLRITGAKAIDWKLSYNIATLKRVKNQPGINGVKNIIAVSSGKGGVGKSSTAVNLALALAAEGAKVGVLDADIYGPSIPTMLGAEDQRPTSPDGTHMAPIMSHGLATNSIGYLVTDDNAMVWRGPMASKALMQMLQETLWPDLDYLVLDMPPGTGDIQLTLAQNIPVTGAVVVTTPQDIALIDAKKGIVMFEKVEVPVLGIVENMSMHICSNCGHHEPIFGTGGAQKLAEKYHTQLLGQMPLHISLREDLDRGTPTVVSRPESEFTAIYRELADRVAAQLYWQGEVIPGEIAFRAVLEHHHHHH”, “soluble”.
Consider “MGSDKIHHHHHHMSAIAERSKPSEHMPVLPEFTPLERAIINRLQYGLPLTRTPYKDVADELGVSEVTLLKHLQALLDNGTLTRFGPMFHAGEMGGGLTLAAMRIPEQDFANVTEQVNSFPEVAHNYRREHELNMWFVLATETPEGITETIQRIESLTGYTVYNMPKEQEFHVHLHFEV”, for which the “soluble on expression in E. coli” value is “not soluble”.
In the case of “MTHSHRRHDISDRIWSLLEGHLPGREGAWGGVATDNRQFINAVFWIIRTGAPWRDLPPDYGGWSNTHRRFIRWRDKGIWEKLLEILIDDPDYEWLIMDASHCKVHPHASGARGGNQDMNRTKGGSTPRYIWPWMRMVCRSESLLHKVPLLIARRLAA”, the “soluble on expression in E. coli” value is “not soluble”.
Under “MSLRSYDGQLVYNPVEENGVMVGQTVYKMNGSTLANYMKYNYKYDDNKRMIESETLKWNSTKEEWEKDLRINYTYEGKTVTTNYYKWNNKKRAYVLVPEMTVTMDNTNEGHHHHHH” stands “soluble”; under “MGSDKIHHHHHHMNTADNVVEMRSISKGFNGVSVLKDVSFDVRKGEVHALAGGNGAGKSTLMKILQGVYQADAGEILIGGKPVAINSIQDAKSAGIGMVFQEFSLVPSLTVAQNIFLAAEPLGAGGLIDDRASERRAKEIFAEMEVKVDPRAEVSRLGTAYWQLTEIAKALSQNAQVLIMDEPTASLARHESEALFELIDRLKQRGISIIYISHRMDEVYRLADRITILRDGRRLLTEPLTGVTPEQIVEGIVGKKIEGQLAYRERDQVAHDSAPLLEVRGLNAGPRVRDISFSLRPGEILGLAGLMGSGRTELARALFGIDRRDSGEIFIRGERINLTSPQQAITAGVALIPEDRRAQGLVLEHSVQDNLLLPLLGQIQRGPFLDGARGKELSSSLIKRFAVKVAHPHRPVRLLSGGNQQKVVIAKWLGTDPDILILDEPTAGVDIGTKSEILDMIRELASAGKAVIVISSEYPELLAVSDRVLVLKDGSIIRDIPRSEIADEEYLQLAVQGV”, “not soluble”.
Under “GDKLLPKTLSKEIVSEPFAKNQLREKARLTNIKGLEIPRVSYTLDDDDFITDVETAKELKAKGDTVKFTTNKFKVFAAISDTVIHGSDVDLVNWVENALQSGLAAKERKDALAVSPKSGLEHMSFYNGSVKEVEGADMYDAIINALADLHEDYRDNATIYMRYADYVKIISVLSNGTTNFFDTPAEKVFGKPVVFTDAAVKPIVGDFNYFGINYDGTTYDTDKDVKKGEYLFVLTAWYDQQRTLDSAFRIAKA” stands “soluble”.
For “MKILKDTVLFGLFASYADGVRNGEEKLSAAYDDFATLLATLPTDGTNICAQLRRLFYTKIELRGIQETVSTNGMERHVLFDVYIGKALALLDAEEQMMKEVLRHGGTEAMGLKEEAVCRNGKKGSVTLTWNGTDSDLIELVAALMAAGVIGTAEGRELKVVDVIRVFEEVFHLKINALYTKRGKVFDRCTDTTPFIDSLRRSYNRMLDARLA” the value was “not soluble”.
For “EHLLEELESELVRRVYSTHFPPQVSIDEGQAQLACAEFHAVTPEEGQDLLVLSGDHQAQNNQGHYGLTDTFLDIADEFGIQRVFALGGVPTGELIEEYDVLGATTTEDFKETLEESGVAFREDEPAGGIVGVSGLLLGLSKRRDVPASCLMGETSGYLVDPKSAQAVLEILQDVIGFEVDYSSLEDRADEMEEVVRKIQEMEQQNSPSPADEDLRYIG”, the “soluble on expression in E. coli” value is given as “not soluble”.
Take “MSLRTTIADVAQAAGVSVSTVSRALRGLDRVSPETRERIEQEAKRLHFSFSKSASSLASGKTMRVAVLLPNEISSWFNAHAFEGIYEVMSKAGYDIVPYIVWTQDDLDAFFQNLPGNRNVDAVIEASFDFDEAKKQVLGNLTIPVVGMNAPSTHGLDAGVAIDDEASMATIVRFLKSLGHKTLAYIEQPINTTPFVCSDRLRKKGFSEASQACGYADEDIIVMPSLSHIDARSEQDIYSGIVAQLLSAPKQPTAICVSVDAVAAPLLKELRRMGWRVPQDVSLVGFDDDDTATALDLTTMHQDPAEIGRIAARKTLALLNGETLDEPFTVMPTSLVLRGTTERVSEGHHHHHH”: the “soluble on expression in E. coli” value is “soluble”.
Turning to “MSKSEEKQELPLETSPYTKYEDIEDYKKNAYGTSGHQDVKPGHGGGTTDAPTPSGDAAPSAIDSANQKAKK”, the “soluble on expression in E. coli” value is “soluble”.
For “MASEVRIKLLLECTECKRRNYATEKNKRNTPNKLELRKYCPWCRKHTVHREVKI”, the “soluble on expression in E. coli” value is recorded as “soluble”.
For “GMNRGKALQLVKPHLTEHRYQHTIGVMETAIDLAKLYGADQQKAELAAIFHDYAKFRDKNEMRTLIREKLSQQDILFYGDELLHAPCGAYYVREEVGIEDEDVLQAIRFHTTGRPNMSLLEKIIFLADYIEPNRQFPGVEKVRTQAKTDLNGAIISSLVNTITFLLKKNQPIYPDTLATYNQLLLEQK” the value was “soluble”; for “SLGWIKRLIRMVFQQVGVSMQSVLWSRKPYGSSRSIVRKIGTNLSLIQCPRVQFQINSHATEWSPSHPGEDAVASFADVGWVAKEEGECSARLRTEVRSRPPLQDDLLFFEKAPSRQISLPDLSQEEPQLKTPARANEEALQKICALENELAALRAQIAKIVTQQEQQNLTAGDLDSTTFGTIPPHPPPPPPPLPPPALGLHQSTSAVDLIKERREKRANAGKTLVKNNPKKPEMPNMLEILKEMNSVKLRSVKRSEQDVKPKPVDATDPAALIAEALKKKFAYRYRSDSQDEVEKGIPKSESEATSERVLFGPHMLKPTGKMKALIENVSDS”, “not soluble”.
